Legend:
[1] = target: HLA-A*01:01; assay: IEDB peptide-MHC binding, purified MHC/direct/fluorescence; filed as Kd, often an IC50 or EC50 that approximates it; ≥ and ≤ were set here for values at or beyond the usual limits of such assays
[2] = target: HLA-A*02:01; assay: as above
[3] = target: HLA-A*03:01; assay: as above
[4] = target: HLA-A*11:01; assay: as above
[5] = target: HLA-A*24:02; assay: as above
[6] = target: HLA-A*69:01; assay: as above
[7] = target: HLA-B*07:02; assay: as above
[8] = target: HLA-B*15:01; assay: as above
[9] = target: HLA-B*27:05; assay: as above
[10] = target: HLA-B*40:01; assay: as above
[11] = target: HLA-B*44:02; assay: as above
[12] = target: HLA-B*58:01; assay: as above
[13] = target: HLA-B*27:05; assay: IEDB peptide-MHC binding, purified MHC/competitive/fluorescence; filed as Kd, often an IC50 or EC50 that approximates it; ≥ and ≤ were set here for values at or beyond the usual limits of such assays; conditions: source organism: Vibrio vulnificus YJ016
[14] = target: HLA-A*02:06; assay: IEDB peptide-MHC binding, purified MHC/direct/fluorescence; filed as Kd, often an IC50 or EC50 that approximates it; ≥ and ≤ were set here for values at or beyond the usual limits of such assays
[15] = target: HLA-A*30:01; assay: as above; conditions: source organism: Mycobacterium tuberculosis str. Haarlem
[16] = target: HLA-A*31:01; assay: as above
[17] = target: HLA-B*08:02; assay: as above
[18] = target: HLA-B*15:17; assay: as above; conditions: source organism: Mycobacterium tuberculosis
[19] = target: HLA-B*18:01; assay: as above
[20] = target: HLA-B*38:01; assay: as above; conditions: source organism: Mycobacterium tuberculosis str. Haarlem
[21] = target: HLA-B*39:01; assay: as above; conditions: source organism: Mycobacterium tuberculosis str. Haarlem
[22] = target: HLA-B*46:01; assay: as above
[23] = target: HLA-B*48:01; assay: as above; conditions: source organism: Mycobacterium tuberculosis
[24] = target: HLA-B*51:01; assay: as above; conditions: source organism: Mycobacterium tuberculosis
[25] = target: HLA-B*57:01; assay: as above; conditions: source organism: Mycobacterium tuberculosis
[26] = target: HLA-A*01:01; assay: IEDB peptide-MHC binding, purified MHC/competitive/fluorescence; filed as Kd, often an IC50 or EC50 that approximates it; ≥ and ≤ were set here for values at or beyond the usual limits of such assays; conditions: source organism: Human immunodeficiency virus 1
[27] = target: HLA-A*02:03; assay: as above; conditions: source organism: Human immunodeficiency virus 1
[28] = target: HLA-A*02:06; assay: as above; conditions: source organism: Human immunodeficiency virus 1
[29] = target: HLA-A*11:01; assay: as above; conditions: source organism: Human immunodeficiency virus 1
[30] = target: HLA-A*26:02; assay: as above; conditions: source organism: Human immunodeficiency virus 1
[31] = target: HLA-A*30:01; assay: as above; conditions: source organism: Human immunodeficiency virus 1
[32] = target: HLA-B*15:01; assay: as above; conditions: source organism: Human immunodeficiency virus 1
[33] = target: HLA-B*15:17; assay: as above; conditions: source organism: Human immunodeficiency virus 1
[34] = target: HLA-B*18:01; assay: as above; conditions: source organism: Human immunodeficiency virus 1
[35] = target: HLA-B*57:01; assay: as above; conditions: source organism: Human immunodeficiency virus 1
[36] = target: HLA-B*08:01; assay: IEDB peptide-MHC binding, purified MHC/direct/fluorescence; filed as Kd, often an IC50 or EC50 that approximates it; ≥ and ≤ were set here for values at or beyond the usual limits of such assays
[37] = target: HLA-B*15:09; assay: as above; conditions: source organism: Vibrio cholerae V52
[38] = target: HLA-A*02:03; assay: as above; conditions: source organism: Influenza A virus(A/swine/Shandong/fNY/2003(H9N2))
[39] = target: HLA-A*02:11; assay: as above; conditions: source organism: Influenza A virus(A/swine/Shandong/fNY/2003(H9N2))
[40] = target: HLA-A*02:12; assay: as above; conditions: source organism: Influenza A virus(A/swine/Shandong/fNY/2003(H9N2))
[41] = target: HLA-A*02:16; assay: as above; conditions: source organism: Influenza A virus(A/swine/Shandong/fNY/2003(H9N2))
[42] = target: HLA-A*02:19; assay: as above; conditions: source organism: Influenza A virus(A/swine/Shandong/fNY/2003(H9N2))
[43] = source organism: Vibrio parahaemolyticus
[44] = source organism: Mycobacterium tuberculosis
[45] = source organism: Mycobacterium tuberculosis str. Haarlem
[46] = source organism: Vibrio cholerae
[47] = source organism: Vibrio cholerae V52
[48] = source organism: Influenza A virus (A/Viet Nam/HN/2004(H5N1))
[49] = source organism: Influenza A virus (A/Puerto Rico/8/34/Mount Sinai(H1N1))

Sequence: ISDPAFKVF
- Kd [1, 43]: ≥ 20 µM
- Kd [2, 43]: ≥ 20 µM
- Kd [3, 43]: ≥ 20 µM
- Kd [4, 43]: ≥ 20 µM
- Kd [5, 43]: ≥ 20 µM
- Kd [6, 43]: ≥ 20 µM
- Kd [7, 43]: ≥ 20 µM
- Kd [8, 43]: 0.63 µM
- Kd [9, 43]: ≥ 20 µM
- Kd [10, 43]: ≥ 20 µM
- Kd [11, 43]: ≥ 20 µM
- Kd [12, 43]: 0.0175 µM

Sequence: QQYTDEAPY
- Kd [13]: ≥ 20 µM

Sequence: RGRIGRTYL
- Kd [1, 44]: ≥ 20 µM
- Kd [2, 44]: ≥ 20 µM
- Kd [14, 45]: ≥ 20 µM
- Kd [3, 44]: ≥ 20 µM
- Kd [4, 44]: ≥ 20 µM
- Kd [15]: 0.023 µM
- Kd [16, 44]: ≥ 20 µM
- Kd [6, 44]: ≥ 20 µM
- Kd [7, 44]: 0.003 µM
- Kd [17, 45]: ≥ 20 µM
- Kd [8, 44]: ≥ 20 µM
- Kd [18]: 0.0687 µM
- Kd [19, 44]: ≥ 20 µM
- Kd [20]: ≥ 20 µM
- Kd [21]: ≥ 20 µM
- Kd [10, 44]: ≥ 20 µM
- Kd [22, 44]: ≥ 20 µM
- Kd [23]: 3.04 µM
- Kd [24]: ≥ 20 µM
- Kd [25]: ≥ 20 µM
- Kd [12, 44]: ≥ 20 µM

Sequence: RSLFNTIATLY
- Kd [26]: 1.25 µM
- Kd [27]: 0.728 µM
- Kd [28]: 0.203 µM
- Kd [29]: 0.255 µM
- Kd [30]: 2.15 µM
- Kd [31]: ≥ 20 µM
- Kd [32]: 0.711 µM
- Kd [33]: 0.003 µM
- Kd [34]: 0.0886 µM
- Kd [35]: 0.146 µM

Sequence: RVHGATVFK
- Kd [1, 46]: ≥ 20 µM
- Kd [2, 46]: ≥ 20 µM
- Kd [3, 46]: 0.249 µM
- Kd [4, 46]: 0.0472 µM
- Kd [5, 46]: ≥ 20 µM
- Kd [16, 46]: 0.0595 µM
- Kd [6, 46]: ≥ 20 µM
- Kd [7, 46]: ≥ 20 µM
- Kd [36, 47]: ≥ 20 µM
- Kd [17, 47]: ≥ 20 µM
- Kd [8, 46]: ≥ 20 µM
- Kd [37]: ≥ 20 µM
- Kd [19, 46]: ≥ 20 µM
- Kd [9, 46]: ≥ 20 µM
- Kd [10, 46]: ≥ 20 µM
- Kd [11, 46]: ≥ 20 µM
- Kd [12, 46]: ≥ 20 µM

Sequence: VSPLAVTWW
- Kd [1, 48]: ≥ 20 µM
- Kd [2, 49]: 1.08 µM
- Kd [38]: 0.029 µM
- Kd ([14]; source organism: Influenza A virus(A/swine/Shandong/fNY/2003(H9N2))): ≥ 20 µM
- Kd [39]: 0.032 µM
- Kd [40]: 3.54 µM
- Kd [41]: 0.131 µM
- Kd [42]: ≥ 20 µM
- Kd [3, 49]: 0.173 µM
- Kd [5, 48]: ≥ 20 µM
- Kd [6, 48]: ≥ 20 µM
- Kd [7, 48]: ≥ 20 µM
- Kd [36, 48]: ≥ 20 µM
- Kd [8, 49]: 2.2 µM
- Kd [9, 49]: 0.161 µM
- Kd [10, 48]: ≥ 20 µM
- Kd [11, 48]: ≥ 20 µM
- Kd [22, 48]: ≥ 20 µM

Reference: the Immune Epitope Database (IEDB)
